Assay results from the supplement of paper PMC10065799, “High-throughput profiling of sequence recognition by tyrosine kinases and SH2 domains using bacterial peptide display” (eLife, 2023).

Experiments:
EPHB2 = EPHB2 (UniProt P29323); experiment: phosphorylation enrichment, bacterial display (enrichment ratio); higher = better substrate or ligand; peptides without Tyr show the background
MERTK = MERTK (UniProt Q12866); experiment: as above
Fes = Fes (UniProt P07332); experiment: as above
c-Abl (mouse) = experiment: as above
FGFR3 = FGFR3 (UniProt P22607); experiment: as above
Chain of FGFR3 (P22607 whole entry, looked up): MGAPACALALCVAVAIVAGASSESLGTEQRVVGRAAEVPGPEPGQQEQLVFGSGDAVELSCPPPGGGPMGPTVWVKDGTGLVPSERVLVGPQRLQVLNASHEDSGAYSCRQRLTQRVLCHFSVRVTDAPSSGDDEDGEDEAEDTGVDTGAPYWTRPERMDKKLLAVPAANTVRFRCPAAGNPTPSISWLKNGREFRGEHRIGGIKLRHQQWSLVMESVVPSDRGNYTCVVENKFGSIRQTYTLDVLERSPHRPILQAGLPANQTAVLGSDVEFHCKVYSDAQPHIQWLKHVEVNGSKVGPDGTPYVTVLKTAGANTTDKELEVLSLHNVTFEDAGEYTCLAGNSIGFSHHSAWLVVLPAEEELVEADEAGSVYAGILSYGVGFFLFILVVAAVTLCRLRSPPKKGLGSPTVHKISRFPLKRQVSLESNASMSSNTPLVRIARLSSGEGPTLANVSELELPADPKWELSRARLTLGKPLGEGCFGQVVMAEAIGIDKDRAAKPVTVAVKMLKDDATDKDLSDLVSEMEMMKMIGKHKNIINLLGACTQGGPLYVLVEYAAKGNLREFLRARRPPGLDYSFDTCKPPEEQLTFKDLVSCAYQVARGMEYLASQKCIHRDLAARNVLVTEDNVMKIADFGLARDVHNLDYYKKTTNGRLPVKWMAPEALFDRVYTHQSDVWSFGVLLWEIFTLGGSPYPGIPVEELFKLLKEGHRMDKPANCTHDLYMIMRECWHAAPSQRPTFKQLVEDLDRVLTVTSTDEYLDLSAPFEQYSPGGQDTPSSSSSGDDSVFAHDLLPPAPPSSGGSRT

Fyn = Fyn (UniProt P06241); experiment: as above
Fer (mouse) = experiment: as above
FGFR1 = FGFR1 (UniProt P11362); experiment: as above
Chain of FGFR1 (P11362 whole entry, looked up): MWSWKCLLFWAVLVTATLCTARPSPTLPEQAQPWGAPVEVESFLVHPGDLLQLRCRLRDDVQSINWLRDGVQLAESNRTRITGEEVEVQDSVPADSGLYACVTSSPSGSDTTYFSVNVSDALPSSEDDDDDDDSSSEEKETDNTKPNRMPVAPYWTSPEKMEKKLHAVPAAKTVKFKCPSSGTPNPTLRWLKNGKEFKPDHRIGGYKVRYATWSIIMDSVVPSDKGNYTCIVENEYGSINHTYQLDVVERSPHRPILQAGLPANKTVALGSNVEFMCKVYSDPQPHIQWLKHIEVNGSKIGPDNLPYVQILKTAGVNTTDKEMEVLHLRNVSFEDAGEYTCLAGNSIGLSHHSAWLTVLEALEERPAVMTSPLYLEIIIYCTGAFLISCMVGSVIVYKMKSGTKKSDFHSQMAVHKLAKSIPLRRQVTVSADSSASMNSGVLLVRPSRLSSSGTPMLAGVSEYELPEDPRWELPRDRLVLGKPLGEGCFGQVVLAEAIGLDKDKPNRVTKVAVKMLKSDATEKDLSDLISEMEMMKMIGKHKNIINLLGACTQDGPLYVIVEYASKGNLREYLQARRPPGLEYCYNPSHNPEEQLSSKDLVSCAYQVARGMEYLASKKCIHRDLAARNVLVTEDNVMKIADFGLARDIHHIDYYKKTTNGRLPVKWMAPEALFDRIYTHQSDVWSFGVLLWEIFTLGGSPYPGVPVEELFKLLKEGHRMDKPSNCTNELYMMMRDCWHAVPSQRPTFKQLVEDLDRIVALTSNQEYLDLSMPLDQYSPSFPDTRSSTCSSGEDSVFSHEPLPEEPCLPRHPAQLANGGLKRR

c-Src = experiment: as above
EPHB1 = EPHB1 (UniProt P54762); experiment: as above
Chain of EPHB1 (P54762 whole entry, looked up): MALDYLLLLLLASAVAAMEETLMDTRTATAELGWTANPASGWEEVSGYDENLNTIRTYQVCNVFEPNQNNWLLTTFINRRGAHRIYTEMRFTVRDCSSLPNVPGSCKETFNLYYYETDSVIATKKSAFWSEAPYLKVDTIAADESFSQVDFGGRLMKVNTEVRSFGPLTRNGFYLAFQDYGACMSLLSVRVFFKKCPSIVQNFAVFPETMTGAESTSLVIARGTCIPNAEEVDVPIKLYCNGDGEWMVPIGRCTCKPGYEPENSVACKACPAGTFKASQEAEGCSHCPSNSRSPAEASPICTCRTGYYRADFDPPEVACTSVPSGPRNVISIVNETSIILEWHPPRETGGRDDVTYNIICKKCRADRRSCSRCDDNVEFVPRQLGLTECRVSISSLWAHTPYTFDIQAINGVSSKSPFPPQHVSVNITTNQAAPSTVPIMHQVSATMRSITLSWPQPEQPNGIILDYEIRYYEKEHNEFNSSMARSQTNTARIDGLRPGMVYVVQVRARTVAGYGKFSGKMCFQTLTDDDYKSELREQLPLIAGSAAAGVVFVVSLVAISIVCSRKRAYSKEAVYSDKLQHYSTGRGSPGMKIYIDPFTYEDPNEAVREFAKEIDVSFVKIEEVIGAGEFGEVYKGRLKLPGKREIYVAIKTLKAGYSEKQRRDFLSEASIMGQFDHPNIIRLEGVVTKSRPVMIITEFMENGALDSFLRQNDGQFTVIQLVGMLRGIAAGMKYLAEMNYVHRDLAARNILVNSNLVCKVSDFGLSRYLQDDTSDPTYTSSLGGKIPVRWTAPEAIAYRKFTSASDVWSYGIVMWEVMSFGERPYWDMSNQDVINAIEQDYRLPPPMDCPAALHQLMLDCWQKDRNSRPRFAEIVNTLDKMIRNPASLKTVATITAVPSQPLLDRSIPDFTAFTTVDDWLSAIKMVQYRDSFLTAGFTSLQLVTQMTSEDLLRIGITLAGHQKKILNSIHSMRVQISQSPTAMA

Hck = Hck (UniProt P08631); experiment: as above
Jak2 = Jak2 (UniProt O60674); experiment: as above
Chain of Jak2 (O60674 whole entry, looked up): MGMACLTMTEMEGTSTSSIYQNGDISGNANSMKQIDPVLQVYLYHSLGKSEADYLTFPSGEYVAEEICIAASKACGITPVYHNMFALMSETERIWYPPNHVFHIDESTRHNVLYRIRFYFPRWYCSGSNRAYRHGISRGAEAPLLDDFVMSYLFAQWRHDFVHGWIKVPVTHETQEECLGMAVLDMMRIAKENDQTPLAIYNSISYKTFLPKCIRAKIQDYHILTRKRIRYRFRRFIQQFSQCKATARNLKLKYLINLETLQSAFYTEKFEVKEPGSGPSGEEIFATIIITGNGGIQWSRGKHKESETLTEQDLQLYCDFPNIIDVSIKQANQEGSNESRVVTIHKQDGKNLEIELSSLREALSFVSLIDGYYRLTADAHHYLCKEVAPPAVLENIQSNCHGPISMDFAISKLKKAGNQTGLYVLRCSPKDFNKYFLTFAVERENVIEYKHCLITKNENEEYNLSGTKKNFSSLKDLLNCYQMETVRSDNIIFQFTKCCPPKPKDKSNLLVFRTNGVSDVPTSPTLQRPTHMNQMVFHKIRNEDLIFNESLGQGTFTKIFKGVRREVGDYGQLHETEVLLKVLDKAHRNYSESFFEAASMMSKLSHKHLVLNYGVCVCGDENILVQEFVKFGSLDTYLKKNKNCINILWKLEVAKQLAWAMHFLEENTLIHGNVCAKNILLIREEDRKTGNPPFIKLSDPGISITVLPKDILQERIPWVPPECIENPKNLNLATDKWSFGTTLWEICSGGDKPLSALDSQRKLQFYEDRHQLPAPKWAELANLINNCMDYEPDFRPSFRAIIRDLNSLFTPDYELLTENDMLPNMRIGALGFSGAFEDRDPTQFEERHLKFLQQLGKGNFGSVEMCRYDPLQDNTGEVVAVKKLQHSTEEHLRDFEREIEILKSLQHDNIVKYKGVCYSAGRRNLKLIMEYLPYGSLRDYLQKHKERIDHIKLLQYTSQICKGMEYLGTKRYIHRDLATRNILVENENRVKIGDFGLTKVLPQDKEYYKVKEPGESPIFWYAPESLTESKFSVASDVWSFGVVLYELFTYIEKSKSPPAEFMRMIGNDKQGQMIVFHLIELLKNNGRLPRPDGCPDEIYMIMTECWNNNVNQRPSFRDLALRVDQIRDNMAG

AncSZ = experiment: as above
SHP2-C SH2 = experiment: SH2 binding enrichment of the phosphorylated peptide, bacterial display (enrichment ratio); higher = better substrate or ligand; peptides without Tyr show the background
c-Src SH2 = experiment: as above
Grb2 SH2 = Grb2 SH2 (UniProt P62993); experiment: as above
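For SH2 binding enrichment of the phosphorylated peptide, bacterial display in this document: peptide library displayed on the E. coli surface as eCPX fusions, selected cells deep-sequenced, score is each peptide's frequency after selection divided by its frequency in the input.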
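For phosphorylation enrichment, bacterial display in this document: 11-residue human phosphosite peptides and single-mutation variants displayed on the E. coli surface, counted by deep sequencing, each peptide's frequency after selection divided by its frequency in the unselected input library; frequency after pTyr selection over input frequency; kinase dosed for 20-30% of maximal phosphorylation in three min.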

Chain of MERTK (Q12866 whole entry, looked up): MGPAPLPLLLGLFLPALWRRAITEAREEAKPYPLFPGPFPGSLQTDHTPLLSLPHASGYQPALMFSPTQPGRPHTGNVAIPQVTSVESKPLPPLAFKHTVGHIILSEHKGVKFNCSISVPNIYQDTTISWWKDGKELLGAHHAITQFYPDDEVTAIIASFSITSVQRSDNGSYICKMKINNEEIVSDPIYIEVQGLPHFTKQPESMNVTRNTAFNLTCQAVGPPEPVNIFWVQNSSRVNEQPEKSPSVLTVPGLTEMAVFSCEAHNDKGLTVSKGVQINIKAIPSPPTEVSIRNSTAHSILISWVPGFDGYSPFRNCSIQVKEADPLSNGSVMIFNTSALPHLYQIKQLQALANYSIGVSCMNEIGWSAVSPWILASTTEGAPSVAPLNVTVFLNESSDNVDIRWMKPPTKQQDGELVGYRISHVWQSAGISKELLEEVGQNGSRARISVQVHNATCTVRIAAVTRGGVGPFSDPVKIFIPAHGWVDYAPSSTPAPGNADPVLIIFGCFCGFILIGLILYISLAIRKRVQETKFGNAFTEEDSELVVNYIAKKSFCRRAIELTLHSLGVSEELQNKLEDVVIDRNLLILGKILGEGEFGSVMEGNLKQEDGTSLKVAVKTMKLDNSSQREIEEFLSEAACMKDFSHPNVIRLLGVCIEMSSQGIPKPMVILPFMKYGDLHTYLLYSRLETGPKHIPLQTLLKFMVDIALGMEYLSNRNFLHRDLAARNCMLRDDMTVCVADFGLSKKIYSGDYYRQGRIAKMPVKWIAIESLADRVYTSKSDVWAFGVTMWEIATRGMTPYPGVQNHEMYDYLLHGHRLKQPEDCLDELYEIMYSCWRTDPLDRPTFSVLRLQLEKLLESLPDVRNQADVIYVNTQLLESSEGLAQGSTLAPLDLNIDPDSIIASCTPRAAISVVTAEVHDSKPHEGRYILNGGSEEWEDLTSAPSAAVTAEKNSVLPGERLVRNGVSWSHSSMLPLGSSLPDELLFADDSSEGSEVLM

SH2 binding enrichment (SHP2-C SH2)	SH2 binding enrichment (c-Src SH2)	SH2 binding enrichment (Grb2 SH2)	Sequence	phosphorylation enrichment (EPHB2)	phosphorylation enrichment (MERTK)	phosphorylation enrichment (Fes)	phosphorylation enrichment (c-Abl (mouse))	phosphorylation enrichment (FGFR3)	phosphorylation enrichment (Fyn)	phosphorylation enrichment (Fer (mouse))	phosphorylation enrichment (FGFR1)	phosphorylation enrichment (c-Src)	phosphorylation enrichment (EPHB1)	phosphorylation enrichment (Hck)	phosphorylation enrichment (Jak2)	phosphorylation enrichment (AncSZ)
0.563	0.412	0.661	TEDELYQLSLQ [RASGRP2_Y378]	0.677	0.542	1.27	0.928	0.759	0.93	2.94	0.476	1.33	0.717	0.896	1.04	1.9
0.981	0.882	1.07	KLVQLYGVCTK [BTK_Y461]	1.43	0.892	0.887	0.686	0.532	1.25	0.439	0.439	1.25	1.33	1.91	0.773	0.848
0.59	0.61	0.98	LFSLGYHQSLW [GANAB_Y396_R400L]	0.702	0.535	0.986	0.666	0.786	0.475	0.474	0.51	0.42	0.627	0.475	0.7	0.827
0.784	0.548	1.53	LPEENYQVLRF [ARHGAP1_Y365]	1.41	0.802	1.39	1.18	2.17	0.768	2.13	2.81	1.32	4.13	2.82	1.44	1.43
2.86	1.73	1.38	LAGRYYALRSM [CKB_Y174_K177R]	0.688	3.63	0.79	0.684	0.763	0.524	0.5	0.751	0.581	0.701	0.708	1.66	0.807
0.629	0.41	0.795	EHFSFYGMKAV [SLC15A2_Y61_R57H_YF]	0.601	0.417	1.04	0.624	0.615	0.473	0.48	0.441	0.579	0.498	0.846	0.901	0.868
1.11	0.494	0.877	ARTNEYKIIRT [INA_Y87]	0.425	0.436	0.469	0.843	0.452	0.504	0.512	0.455	0.569	0.468	0.502	0.571	0.525
0.707	0.507	0.848	KNDSIYVVKGN [KIT_Y823_N822I]	0.689	0.443	0.647	0.47	0.469	0.786	0.47	0.39	0.922	0.339	1.35	0.516	0.574
0.673	0.682	0.813	YGSGNYNVFGN [HNRNPA2B1_Y300_D302V]	0.797	0.639	0.828	0.49	0.63	0.76	0.561	0.539	0.653	0.666	0.882	0.683	0.737
0.77	0.913	0.946	IHKEFYDGLFP [BCR_Y561]	0.743	0.823	1.27	0.864	0.853	0.57	0.699	0.606	0.878	0.802	1.17	1.06	1.08
0.767	0.607	0.783	ALTDNYMYVVI [HAGH_Y61_L64V]	13.1	4.21	1.42	0.952	9.14	1.04	7.79	11.1	1.12	12.9	1.52	2.65	1.92
1.02	0.946	1.2	FCVDCYKNFVA [FHL1_Y213_YF]	0.751	0.487	0.957	0.776	0.617	0.562	0.523	0.57	0.461	0.533	0.529	0.898	0.862
0.681	0.558	0.729	GRQVIYTENER [GPR143_Y231_G229V]	0.41	0.43	0.89	0.537	0.479	0.407	0.382	0.435	0.513	0.441	0.462	0.552	0.531
0.831	0.521	0.918	GQECEYPPTQD [METAP2_Y137]	0.67	0.525	1.41	1.06	0.852	0.534	0.609	0.584	0.563	0.866	0.63	1.24	1.34
0.618	0.644	0.949	NHFKRYNLCAE [PTEN_Y68_I67R_YF]	0.565	0.485	0.668	0.678	0.471	0.459	0.419	0.456	0.538	0.384	0.449	0.59	0.638
0.452	0.389	0.678	REGAKYVSHDA [ASS1_Y113_G117D]	0.423	0.833	0.988	0.75	0.739	0.655	0.767	0.648	0.565	0.508	0.553	0.886	1.4

SH2 binding enrichment (SHP2-C SH2)	SH2 binding enrichment (c-Src SH2)	SH2 binding enrichment (Grb2 SH2)	Sequence	phosphorylation enrichment (EPHB2)	phosphorylation enrichment (MERTK)	phosphorylation enrichment (Fes)	phosphorylation enrichment (c-Abl (mouse))	phosphorylation enrichment (FGFR3)	phosphorylation enrichment (Fyn)	phosphorylation enrichment (Fer (mouse))	phosphorylation enrichment (FGFR1)	phosphorylation enrichment (c-Src)	phosphorylation enrichment (EPHB1)	phosphorylation enrichment (Hck)	phosphorylation enrichment (Jak2)	phosphorylation enrichment (AncSZ)
0.626	0.388	0.601	VDTFWYKFLKP [EPM2A_Y86_R91P]	0.533	0.471	1.28	0.694	0.808	0.388	0.515	0.463	0.43	0.644	0.426	1.05	0.982
1.37	1.16	1.18	FYLGAYDRFLP [SLC22A5_Y486_V481F]	2.06	4.1	1.28	0.829	0.831	2.4	1.22	0.712	3.62	0.938	3.38	1.11	1.37
0.908	1.16	1.13	MCDKEYYSVHN [MET_Y1234_Y1230C]	0.865	0.478	0.862	0.566	3.33	0.684	0.594	5.1	1.02	0.625	0.734	1.31	1.79
0.842	0.608	0.931	AQAGEYGAEAL [HBA1_Y25_H21Q]	0.545	0.327	0.96	0.491	0.629	0.507	0.465	0.557	0.33	0.609	0.514	0.767	0.965
0.445	0.443	0.664	LHSEAYLKYIE [PBRM1_Y1610]	1.2	0.678	0.994	0.9	0.743	0.831	0.665	0.633	0.941	0.753	0.684	1.55	1.16
0.733	0.403	0.798	ACEVLYNIVFM [NCF2_Y125_A128V]	1.16	3.19	1.93	1.84	2.03	1.55	8.66	1.8	2.18	1.17	2.95	1.59	2.4
0.613	0.579	0.938	DDDPEDRKFLE [UPF3B_Y160_Y160D]	0.501	0.541	1.24	0.867	0.641	0.56	0.56	0.51	0.503	0.586	0.594	1.17	1.12
1.53	1.04	1.51	FIGCIYLYLTK [GARS1_Y414_R412C]	0.451	0.435	0.96	0.746	0.79	0.393	0.486	0.535	0.704	0.614	0.373	1.28	1.02
1.51	0.982	1.13	GKMSSYAFFVQ [HMGB1_Y16]	0.711	1.29	1.14	0.849	0.741	0.505	0.474	0.603	0.562	0.809	0.513	1.01	1.01
0.633	0.817	0.996	IGRHAYGDQFR [IDH1_Y135_YF]	0.391	0.296	0.507	0.516	0.383	0.381	0.339	0.331	0.407	0.367	0.341	0.487	0.449
0.585	0.464	0.846	EREFKYGAHKF [OAT_Y50_N54K_YF]	0.412	0.392	0.738	0.496	0.438	0.443	0.329	0.424	0.423	0.339	0.427	0.571	0.599
0.661	0.503	0.828	VDGSLYETHPQ [HK1_Y417_K418E]	2.37	1.18	0.861	0.541	0.607	1.13	9.06	0.441	0.918	1.5	2.09	0.653	1.26
0.875	0.553	0.982	GSSSSCGQHGS [HRNR_Y517_Y517C]	0.311	0.294	0.622	0.411	0.522	0.4	0.38	0.363	0.283	0.342	0.333	0.448	0.556
0.971	0.679	1.01	VFGEEYEEQPR [ZMYM2_Y1033]	0.767	0.386	1.39	0.709	0.731	0.534	0.514	0.614	0.443	0.585	0.526	1.23	1.39
0.556	0.497	0.706	FGRTFYNQANM [MCCC2_Y196_I200N]	0.509	0.411	1.06	0.842	0.695	0.377	0.51	0.433	0.493	0.786	0.503	0.994	0.939
2.81	3.29	1.61	PSQRPYVYYYS [PTEN_Y174_R173P]	0.676	7.73	1.09	1	3.08	1.43	0.64	4.69	2.78	0.652	1.02	2.58	1.44

Sequence	SH2 binding enrichment (SHP2-C SH2)	SH2 binding enrichment (c-Src SH2)	SH2 binding enrichment (Grb2 SH2)	phosphorylation enrichment (EPHB2)	phosphorylation enrichment (MERTK)	phosphorylation enrichment (Fes)	phosphorylation enrichment (c-Abl (mouse))	phosphorylation enrichment (FGFR3)	phosphorylation enrichment (Fyn)	phosphorylation enrichment (Fer (mouse))	phosphorylation enrichment (FGFR1)	phosphorylation enrichment (c-Src)	phosphorylation enrichment (EPHB1)	phosphorylation enrichment (Hck)	phosphorylation enrichment (Jak2)	phosphorylation enrichment (AncSZ)
NFRTIYVNANE [KCNH2_Y475_T474I]	8.36	3.07	19	0.5	0.367	0.775	0.509	0.529	0.423	0.428	0.417	0.44	0.543	0.525	0.717	0.659
